In the supplement of paper PMC7877785:
± gives the uncertainty stated by the source.

Experiment: self-splicing fitness, log relative to wild type (ln ratio); higher = more splicing; Tetrahymena group I intron in knt gene, E. coli kanamycin selection, DiMSum; sequences stand for … in CUCUCU…GGAGGGAAAAGUUAUCAGGCAUGCACCUGGUAGCUAGUCUUUAAACCAAUAGAUUGCAUCGGUUUAAAAGGCAAGACCGUCAAAUUGCGGGAAAGGGGUCAACAGCCGUUCAGUACCAAGUCUCAGGGGAAACUUUGAGAUGGCCUUGCAAAGGGUAUGGUAAUAAGCUGACGGACAUGGUCCUAACCACGCAGCCAAGUCCUAAGUCAACAGAUCUUCUGUUGAUAUGGAUGCAGUUCACAGACUAAAUGUCGGUCGGGGAAGAUGUAUUCUUCUCAUAAGAUAUAGUCGGACCUCUCCUUAAUGGGAGCUAGCGGAUGAAGUGAUGCAACACUGGAGCCGCUGGGAACUAAUUUGUAUGCGAAAGUAUAUUGAUUAGUUUUGGAGUACUCGUGGUCG
Outline: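 The eight P1ex-region nucleotides of an intron in the knt kanamycin-resistance gene on pET-22b(+) were all randomised and the library put into E. coli BL21(DE3). Six replicate transformations were grown overnight at 37°C or 30°C on LB agar with or without 25 μg/mL kanamycin, together with 100 μg/mL carbenicillin, 50 μM IPTG and 0.2% rhamnose. Colonies were pooled and amplicon-sequenced on an Illumina HiSeq 2500. Fitness from DiMSum is the error-weighted combination of wild-type-normalised replicate fold changes, kanamycin over none.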

Sequence | self-splicing fitness (ln) (30 °C) | self-splicing fitness (ln) (37 °C)
CUCAAGCAAUAUUACGAGGA | -1.9 ± 0.13 | -1.66 ± 0.13
GCUAAGCAAUAUUACGUAAA | -0.877 ± 0.068 | -0.32 ± 0.091
GAGCAGCAAUAUUACGUCCC | -0.684 ± 0.11 | -0.465 ± 0.19
UGUAAGCAAUAUUACGCACU | -0.554 ± 0.094 | -0.349 ± 0.12
UCUCAGCAAUAUUACGAGAC | -2.81 ± 0.15 | -2.71 ± 0.21
ACCGAGCAAUAUUACGUAUA | -3.96 ± 0.35 | -2.6 ± 0.27
CAGUAGCAAUAUUACGCUAA | -2.26 ± 0.5 | -2.38 ± 0.32
AUUCAGCAAUAUUACGAACG | -0.206 ± 0.085 | 0.232 ± 0.13
CUGGAGCAAUAUUACGGCUA | – | -1.11 ± 0.47
CUGAAGCAAUAUUACGUAUA | -2.8 ± 0.18 | -2.19 ± 0.27
CCUCAGCAAUAUUACGUGGA | -3.84 ± 0.18 | -3.02 ± 0.2
CGCUAGCAAUAUUACGGUCU | -1.02 ± 0.1 | -0.659 ± 0.12
UCCAAGCAAUAUUACGCUAG | -3.67 ± 0.32 | -3.6 ± 0.35
CGAUAGCAAUAUUACGUUCG | -3.06 ± 0.24 | -1.9 ± 0.33
GAAGAGCAAUAUUACGCCAU | – | -1.61 ± 0.37
UGACAGCAAUAUUACGAGCG | -0.264 ± 0.067 | -0.0667 ± 0.079
GGCAAGCAAUAUUACGAGGG | -2.89 ± 0.13 | -2.34 ± 0.14
UAUAAGCAAUAUUACGGGGU | -2.93 ± 0.24 | -2.66 ± 0.23
GUCCAGCAAUAUUACGAGAG | -1.15 ± 0.078 | 0.117 ± 0.077
GGGUAGCAAUAUUACGGAAA | -1.82 ± 0.34 | 0.517 ± 0.27
UUUUAGCAAUAUUACGUCGU | -3.49 ± 0.15 | -2.81 ± 0.17
CCCAAGCAAUAUUACGGUGU | -2.71 ± 0.089 | -1 ± 0.084
CCGUAGCAAUAUUACGGUCU | -3.01 ± 0.21 | -2.2 ± 0.18
GUUAAGCAAUAUUACGCACA | -0.425 ± 0.09 | -0.0375 ± 0.11
UAUAAGCAAUAUUACGUUUG | -1.84 ± 0.11 | -1.61 ± 0.14

Sequence | self-splicing fitness (ln) (30 °C) | self-splicing fitness (ln) (37 °C)
AUGCAGCAAUAUUACGUAUC | -4.58 ± 0.41 | -2.76 ± 0.4
UAAGAGCAAUAUUACGGUGU | -2.19 ± 0.14 | -3.27 ± 0.47
AGAGAGCAAUAUUACGGGAA | -4.12 ± 0.35 | -2.62 ± 0.28
CGUUAGCAAUAUUACGAUCA | -0.373 ± 0.16 | 0.245 ± 0.17
UUGCAGCAAUAUUACGCGGG | -4.61 ± 0.39 | -2.03 ± 0.21
AGCUAGCAAUAUUACGCAUU | -3 ± 0.19 | -1.48 ± 0.14
AGCUAGCAAUAUUACGCACG | -0.605 ± 0.16 | -0.0907 ± 0.18
GGUCAGCAAUAUUACGGAGA | – | -1.69 ± 0.28
AAGAAGCAAUAUUACGAAUA | -1.86 ± 0.17 | -0.73 ± 0.12
CGCCAGCAAUAUUACGGUUA | -0.708 ± 0.055 | 0.0109 ± 0.058
AUCUAGCAAUAUUACGGGGU | -3 ± 0.16 | -2.98 ± 0.2
AAAAAGCAAUAUUACGUCUC | -1.51 ± 0.078 | -0.62 ± 0.093
UAGCAGCAAUAUUACGCCCU | -0.738 ± 0.087 | -0.863 ± 0.11
UUCAAGCAAUAUUACGUAGA | -1.5 ± 0.094 | -0.928 ± 0.14
AAAAAGCAAUAUUACGCCCG | -0.481 ± 0.16 | 0.243 ± 0.23
CCGUAGCAAUAUUACGCGCA | -3.09 ± 0.3 | -1.69 ± 0.4
UAAGAGCAAUAUUACGAUGC | -3.73 ± 0.42 | -2.34 ± 0.33
CCUUAGCAAUAUUACGGGAG | -3.19 ± 0.23 | -3.67 ± 0.39
UGAAAGCAAUAUUACGGCUG | 0.281 ± 0.088 | 0.316 ± 0.11
GCCAAGCAAUAUUACGGUAG | -3.67 ± 0.22 | -2.82 ± 0.18
ACCCAGCAAUAUUACGCCUA | -1.15 ± 0.073 | -0.478 ± 0.07
UGGCAGCAAUAUUACGCGGA | -1.48 ± 0.098 | -0.878 ± 0.095
CCCCAGCAAUAUUACGAAGU | -3.84 ± 0.18 | -3.21 ± 0.2
UAGGAGCAAUAUUACGGAAG | -2.94 ± 0.18 | -1.51 ± 0.26
ACUCAGCAAUAUUACGUGAA | -1.27 ± 0.053 | 0.294 ± 0.086

Sequence | self-splicing fitness (ln) (30 °C) | self-splicing fitness (ln) (37 °C)
UACGAGCAAUAUUACGCUAG | – | -1.7 ± 0.46
AGAUAGCAAUAUUACGCUGA | -1.79 ± 0.14 | -0.681 ± 0.17
CAGUAGCAAUAUUACGGACA | -2.94 ± 0.17 | -2.23 ± 0.17
CUUCAGCAAUAUUACGACGC | -0.697 ± 0.26 | 0.21 ± 0.28
GACCAGCAAUAUUACGUAUG | -1.75 ± 0.065 | -0.824 ± 0.076
CUACAGCAAUAUUACGCUGA | -3.41 ± 0.28 | –
CCCUAGCAAUAUUACGAGAG | -3.79 ± 0.3 | -2.5 ± 0.23
GUACAGCAAUAUUACGAACA | -1.51 ± 0.11 | -0.736 ± 0.11
AAUCAGCAAUAUUACGGACG | -0.448 ± 0.068 | 0.478 ± 0.12
AAGGAGCAAUAUUACGAACG | – | -0.373 ± 0.27
GUAAAGCAAUAUUACGGGAC | -1.62 ± 0.12 | -1.18 ± 0.11
UGGGAGCAAUAUUACGAUAG | -3.25 ± 0.32 | –
GUGUAGCAAUAUUACGAAUA | -1.91 ± 0.39 | -1.39 ± 0.43
ACUAAGCAAUAUUACGGUAC | -2.7 ± 0.27 | -1.89 ± 0.19
CUGAAGCAAUAUUACGCCAG | -3.75 ± 0.29 | -1.17 ± 0.21
UACUAGCAAUAUUACGGUAC | -3.01 ± 0.18 | -2.53 ± 0.23
AGGUAGCAAUAUUACGCGCG | -0.525 ± 0.016 | -0.215 ± 0.035
CAACAGCAAUAUUACGGUCG | -0.273 ± 0.041 | 0.0819 ± 0.056
AAUUAGCAAUAUUACGUGAG | -1.71 ± 0.077 | -0.654 ± 0.1
UAUAAGCAAUAUUACGAACU | -1.94 ± 0.28 | 0.235 ± 0.24
CAUUAGCAAUAUUACGCGUU | -2.44 ± 0.12 | -1.48 ± 0.17
ACCCAGCAAUAUUACGGGAA | -0.235 ± 0.044 | -0.102 ± 0.055
UAUCAGCAAUAUUACGAUCA | -0.115 ± 0.11 | 0.19 ± 0.14
CAUGAGCAAUAUUACGCUUC | – | -2.38 ± 0.32
CUGAAGCAAUAUUACGUCGC | -3.18 ± 0.16 | -1.55 ± 0.22

Sequence | self-splicing fitness (ln) (30 °C) | self-splicing fitness (ln) (37 °C)
AAAGAGCAAUAUUACGGGUG | -3.95 ± 0.21 | -1.88 ± 0.19
GUAUAGCAAUAUUACGAGGG | -3.15 ± 0.26 | -0.987 ± 0.23
UGCGAGCAAUAUUACGGUUG | -1.51 ± 0.16 | -1.82 ± 0.26
GUAUAGCAAUAUUACGCACG | -1.99 ± 0.19 | -0.994 ± 0.3
CGAAAGCAAUAUUACGCCCU | -0.989 ± 0.15 | 0.0487 ± 0.19
UAACAGCAAUAUUACGUGUU | -3.78 ± 0.14 | -2.34 ± 0.12
UGUCAGCAAUAUUACGUUUG | -1.26 ± 0.061 | 0.085 ± 0.095
CGCAAGCAAUAUUACGAGAU | -3.04 ± 0.38 | -1.59 ± 0.26
AAGCAGCAAUAUUACGAUUA | -1.4 ± 0.077 | -0.962 ± 0.066
AAUUAGCAAUAUUACGUUCC | -3 ± 0.22 | -1.32 ± 0.21
UGUCAGCAAUAUUACGGAUU | -1.57 ± 0.083 | -0.507 ± 0.12
AAUAAGCAAUAUUACGUCCC | -0.502 ± 0.17 | 0.393 ± 0.26
UACGAGCAAUAUUACGUAUA | -2.7 ± 0.2 | -0.839 ± 0.14
AAGCAGCAAUAUUACGCUCA | 0.661 ± 0.12 | -0.0809 ± 0.2
UAAGAGCAAUAUUACGCACG | -2.42 ± 0.15 | -1.84 ± 0.15
ACACAGCAAUAUUACGUAGC | -3.75 ± 0.14 | -2.11 ± 0.12
UAUCAGCAAUAUUACGAUCC | -1.32 ± 0.11 | 0.203 ± 0.13
UGAAAGCAAUAUUACGCAGG | -2.65 ± 0.17 | -1.42 ± 0.2
AUUUAGCAAUAUUACGGCAG | -2.47 ± 0.14 | -0.321 ± 0.15
UGUUAGCAAUAUUACGAAAA | -2.39 ± 0.46 | -1.28 ± 0.22
UCCCAGCAAUAUUACGGUAA | 0.0812 ± 0.099 | 0.262 ± 0.1
GGCUAGCAAUAUUACGUCGA | -1.19 ± 0.071 | -0.818 ± 0.093
